The target in this assay is SAd36 fiber-T4 fibritin-SpT (simian (chimpanzee) adenovirus species E serotype 36 (SAd36) | bacteriophage T4). The assay can be described thus: SDS-PAGE without boiling.

Turning to SAd36 fiber-T4 fibritin-SpT, the stoichiometry N came to 3.

The record behind these values is paper PMC9330763.
